Target: T1, HLA-DR13 (DRB1*1301), purified (human)
T1 chain 1: not shown
T1 chain 2: not shown
Assay: competition on purified HLA-DR (DRB1*1301) against biotinylated B1 21-36 (200 nM, pH 4.5); fluorescence assay

## TERVRLVTRHIYNREE (modifications not checked) [B1 21-36 (…), unlabeled reference peptide]
  IC50: 390 nM
